Assay results reported in patent publication US6919434.

Biological target: the molecule itself
Test: SDS-PAGE under reducing and non-reducing conditions (60 kD against 120 kD)
Procedure: The two protein peaks with OCIF activity (peaks 6 and 7) were subjected to SDS-polyacrylamide gel electrophoresis under reducing and non-reducing conditions. Briefly, 20 μL of each peak fraction was concentrated under vacuum and dissolved in 1.5 μL of 10 mM Tris-HCl, pH 8, 1 mM EDTA, 2.5% SDS, 0.01% bromophenol blue, and incubated at 37° C. overnight under non-reducing conditions or under reducing conditions (with 5% of 2-mercaptoethanol). Each 1.0 μL of sample was then analyzed by SDS-polyacrylamide gel electrophoresis with a gradient gel of 10–15% acrylamide (Pharmacia Co.) and an electrophoresis-device (Fast System, Pharmacia Co.). The following molecular weight marker proteins were used to calculate molecular weight: phosphorylase b (94 kD), bovine serum albumin (67 kD), ovalbumin (43 kD), carbonic anhydrase (30 kD), trypsin inhibitor ([…]), and lactalbumin (14.4 kD). After electrophoresis, protein bands were visualized by silver stain using Phast Silver Stain Kit.

B1: osteoclastogenesis inhibitory factor (OCIF) (other)
chain: ETFPPKYLHYDEETSHQLLCDKCPPGTYLKQHCTAKWKTVCAPCPDHYYTDSWHTSDECLYCSPVCKELQYVKQECNRTHNRVCECKEGRYLEIEFCLKHRSCPPGFGVVQAGTPERNTVCKRCPDGFFSNETSSKAPCRKHTNCSVFGLLLTQKGNATHDNICSGNSESTQKCGIDVTLCEEAFFRFAVPTKFTPNWLSVLVDNLPGTKVNAESVERIKRQHSSQEQTFQLLKLWKHQNKDQDIVKKIIQDIDLCENSVQRHIGHANLTFEQLRSLMESLPGKKVGAEDIEKTIKACKPSDQILKLLSLWRIKNGDQDTLKGLMHALKHSKTYHFPKTVTQSLKKTIRFLHSFTMYKLYQKLFLEMIGNQVQSVKISCL
notes: Secreted glycoprotein, present as a 60 kD monomer and a 120 kD homodimer under non-reducing conditions; Natural OCIF from IMR-90 medium coated the plates in the hybridoma ELISA; Recombinant OCIF was the standard in the polyclonal EIA; Unaltered OCIF in 293/EBNA conditioned medium was used in the western blot; also called nOCIF; natural OCIF
binding result: binds
